Measurements published in patent US20080247944A1 (published 2008).
Each block holds one binder with its values, some of them ahead of it.

Tests used:
[1] = target: T1, IRTA-2-Fc antigen (fusion protein composed of the extracellular domain of the IRTA-2 linked to the Fc portion … (human, UniProt Q96RD9 16-851)); experiment: Biacore SPR, antibody captured by anti-human IgG on CM5 chip, IRTA-2-Fc flowed at 50-400 nM, 1:1 Langmuir fit
T1 construct: not shown: Fc portion of human IgG1
T1 chain: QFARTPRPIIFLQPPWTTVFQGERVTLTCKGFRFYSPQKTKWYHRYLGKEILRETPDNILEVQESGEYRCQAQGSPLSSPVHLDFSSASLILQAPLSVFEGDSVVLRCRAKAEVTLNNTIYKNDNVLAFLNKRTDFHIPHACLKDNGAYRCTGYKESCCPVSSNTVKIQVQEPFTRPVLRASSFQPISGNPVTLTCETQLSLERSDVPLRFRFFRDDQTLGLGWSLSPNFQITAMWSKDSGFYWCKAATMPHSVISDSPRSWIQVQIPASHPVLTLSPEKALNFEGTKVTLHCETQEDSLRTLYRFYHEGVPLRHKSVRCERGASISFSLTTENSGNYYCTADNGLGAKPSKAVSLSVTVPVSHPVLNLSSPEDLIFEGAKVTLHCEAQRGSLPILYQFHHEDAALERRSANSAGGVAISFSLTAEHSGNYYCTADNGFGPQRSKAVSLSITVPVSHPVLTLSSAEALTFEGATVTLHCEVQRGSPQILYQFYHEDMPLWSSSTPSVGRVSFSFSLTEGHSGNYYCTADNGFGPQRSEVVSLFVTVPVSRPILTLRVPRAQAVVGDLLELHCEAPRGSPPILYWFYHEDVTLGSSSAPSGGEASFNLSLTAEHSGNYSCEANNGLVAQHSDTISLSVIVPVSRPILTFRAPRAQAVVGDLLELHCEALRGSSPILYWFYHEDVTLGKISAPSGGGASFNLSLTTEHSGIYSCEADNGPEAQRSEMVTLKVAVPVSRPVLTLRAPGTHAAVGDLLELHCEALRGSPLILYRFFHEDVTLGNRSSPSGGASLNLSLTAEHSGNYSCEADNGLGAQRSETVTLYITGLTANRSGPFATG
Procedure: Anti-IRTA-2 antibodies were characterized for affinities and binding kinetics by Biacore analysis (Biacore AB, Uppsala, Sweden). Purified anti-IRTA-2 monoclonal antibodies were captured by anti-human IgG antibody covalently linked to a CM5 chip (carboxy methyl dextran coated chip) via primary amines, using standard amine coupling chemistry and kit provided by Biacore. Binding was measured by flowing the IRTA-2-Fc antigen (a fusion protein composed of the extracellular domain of the IRTA-2 linked to the Fc portion of human IgG1) in HBS EP buffer (provided by Biacore AB) at concentrations of 400, 300, 200, 100, and 50 nM at a flow rate of 12 μl/min. The antigen-antibody association kinetics was followed for either 20 minutes (for 8A1) or 5 minutes (for 9D12) and the dissociation kinetics was followed for ether 10 minutes (for 8A1) or 5 minutes (for 9D12). The association and dissociation curves were fit to a 1:1 Langmuir binding model using BIAevaluation software (Biacore AB).

[2] = target: T2, IRTA-3, full length transmembrane form with N-terminal myc tag, on transfected CHO cells (human, UniProt Q96P31 18-734); experiment: flow cytometry on CHO cells transfected with myc-tagged IRTA-3; PE-labeled anti-human IgG
T2 construct: also called CHO cells transfected with IRTA-3; human IRTA-3; not shown: myc tag at the N-terminus
T2 sequence: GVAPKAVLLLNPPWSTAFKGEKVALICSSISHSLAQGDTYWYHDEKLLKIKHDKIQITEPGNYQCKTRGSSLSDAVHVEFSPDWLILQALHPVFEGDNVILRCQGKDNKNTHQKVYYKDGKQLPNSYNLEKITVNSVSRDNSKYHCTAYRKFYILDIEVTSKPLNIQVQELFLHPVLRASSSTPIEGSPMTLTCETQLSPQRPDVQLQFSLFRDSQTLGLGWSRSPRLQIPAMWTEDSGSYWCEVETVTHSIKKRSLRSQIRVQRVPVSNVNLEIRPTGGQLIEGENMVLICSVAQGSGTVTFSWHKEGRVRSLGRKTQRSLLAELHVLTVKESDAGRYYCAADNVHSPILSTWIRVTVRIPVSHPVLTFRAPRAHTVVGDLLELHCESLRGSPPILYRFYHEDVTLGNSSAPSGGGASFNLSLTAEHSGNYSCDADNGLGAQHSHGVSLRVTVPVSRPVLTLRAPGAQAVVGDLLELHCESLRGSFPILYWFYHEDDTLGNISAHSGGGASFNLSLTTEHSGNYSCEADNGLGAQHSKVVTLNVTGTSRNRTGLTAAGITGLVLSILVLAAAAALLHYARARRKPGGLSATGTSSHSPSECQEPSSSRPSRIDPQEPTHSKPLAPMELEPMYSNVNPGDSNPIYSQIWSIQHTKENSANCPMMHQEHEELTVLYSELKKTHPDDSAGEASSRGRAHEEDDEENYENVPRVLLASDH
Text: (§1) Chinese hamster ovary (CHO) cell lines that express either the IRTA-2, IRTA-3 or IRTA-4 protein at the cell surface were developed and used to determine the specificity of the IRTA-2 monoclonal antibodies by flow cytometry. CHO cells were transfected with expression plasmids containing full length cDNA encoding transmembrane forms of IRTA-2, IRTA-3, or IRTA-4. In addition, the transfected proteins contained a myc tag at the N-terminus for detection by anti-myc antibody. Binding of the two anti-IRTA-2 monoclonal antibodies was assessed by incubating the transfected cells with each of the IRTA-2 Abs at a concentration of 10 μg/ml. The cells were washed and binding was detected with a phycoerythrin-labeled anti-human IgG Ab. A murine anti-myc Ab followed by labeled anti-murine IgG was used as the positive control. Secondary antibody alone was used as a negative control. The results are depicted in FIGS. 7A-C. The IRTA-2 monoclonal antibodies 9D12 and 8A1 bound to the CHO line transfected with IRTA-2 but not to CHO lines expressing IRTA-3 or -4, as measured by the mean fluorescent intensity (MFI) of staining.

[3] = target: T3, IRTA-4, full length transmembrane form with N-terminal myc tag, on transfected CHO cells (human, UniProt Q96LA5 20-508); experiment: flow cytometry on CHO cells transfected with myc-tagged IRTA-4; PE-labeled anti-human IgG
T3 construct: also called CHO cells transfected with IRTA-4; human IRTA-4; not shown: myc tag at the N-terminus
T3 sequence: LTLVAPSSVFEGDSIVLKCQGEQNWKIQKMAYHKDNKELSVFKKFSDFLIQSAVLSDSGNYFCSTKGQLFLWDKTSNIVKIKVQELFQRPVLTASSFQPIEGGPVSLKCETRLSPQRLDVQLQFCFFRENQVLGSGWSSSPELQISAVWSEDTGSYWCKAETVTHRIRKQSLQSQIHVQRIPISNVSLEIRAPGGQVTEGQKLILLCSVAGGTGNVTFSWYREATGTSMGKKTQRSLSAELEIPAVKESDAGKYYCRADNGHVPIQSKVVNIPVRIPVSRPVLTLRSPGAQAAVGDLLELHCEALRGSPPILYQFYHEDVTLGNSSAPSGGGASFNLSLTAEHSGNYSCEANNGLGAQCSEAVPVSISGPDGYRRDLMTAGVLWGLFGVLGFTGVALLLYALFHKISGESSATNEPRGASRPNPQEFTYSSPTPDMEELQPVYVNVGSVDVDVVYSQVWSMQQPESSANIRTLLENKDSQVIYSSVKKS
Text: as §1

[4] = target: T4, IRTA-2, full length transmembrane form with N-terminal myc tag, on transfected CHO cells (human, UniProt Q96RD9 16-977); experiment: flow cytometry on CHO cells transfected with myc-tagged IRTA-2; antibody at 10 µg/ml; PE-labeled anti-human IgG
T4 construct: also called CHO cells transfected with IRTA-2; human IRTA-2; not shown: myc tag at the N-terminus
T4 chain: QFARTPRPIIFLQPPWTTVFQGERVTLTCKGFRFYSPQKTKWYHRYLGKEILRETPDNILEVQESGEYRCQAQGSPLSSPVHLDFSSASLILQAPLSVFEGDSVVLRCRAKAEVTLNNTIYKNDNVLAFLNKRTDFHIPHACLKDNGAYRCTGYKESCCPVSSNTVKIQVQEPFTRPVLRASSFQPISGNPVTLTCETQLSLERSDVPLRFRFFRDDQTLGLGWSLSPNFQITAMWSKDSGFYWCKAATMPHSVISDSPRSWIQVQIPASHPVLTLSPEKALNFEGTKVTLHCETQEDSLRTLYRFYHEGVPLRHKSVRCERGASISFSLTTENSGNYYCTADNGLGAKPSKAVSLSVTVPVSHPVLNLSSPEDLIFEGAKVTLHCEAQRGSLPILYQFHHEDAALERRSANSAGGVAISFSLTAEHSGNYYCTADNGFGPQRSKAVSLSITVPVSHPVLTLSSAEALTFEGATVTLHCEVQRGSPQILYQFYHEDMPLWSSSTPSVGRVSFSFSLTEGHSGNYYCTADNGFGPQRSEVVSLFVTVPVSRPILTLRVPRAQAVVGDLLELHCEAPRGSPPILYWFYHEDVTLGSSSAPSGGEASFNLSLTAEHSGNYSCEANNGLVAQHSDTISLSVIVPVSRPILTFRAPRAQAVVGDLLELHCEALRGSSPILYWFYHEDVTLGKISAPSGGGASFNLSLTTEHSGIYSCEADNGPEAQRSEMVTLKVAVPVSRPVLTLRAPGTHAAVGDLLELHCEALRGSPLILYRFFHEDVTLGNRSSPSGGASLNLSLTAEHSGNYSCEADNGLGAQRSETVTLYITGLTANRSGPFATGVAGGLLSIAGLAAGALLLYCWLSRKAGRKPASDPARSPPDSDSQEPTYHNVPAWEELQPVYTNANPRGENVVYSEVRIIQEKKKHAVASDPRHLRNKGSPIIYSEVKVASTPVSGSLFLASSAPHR
Text: as §1

Kd [1]: 0.02 µM
koff [1]: 0.00011 s⁻¹
kon [1]: 5800 M⁻¹ s⁻¹
B1: 8A1 human monoclonal antibody (antibody, V domains shown)
VH: QMQLVQSGAEVKKPGASVKVSCKASGYTFISYDINWVRQATGQGLEWMGWMHPNSGNTGYAQKFQGRVTMTRNTSISTAYMELSSLRSEDTAVYYCARGRGITMVRGGIIYYGMDVWGQGTTVTVSS
VL: AIQLTQSPSSLSASVGDRVTITCRASQGISSALAWYQQKPGKAPKLLIYDASSLESGVPSRFSGSGSGTDFTLTISSLQPEDFATYYCQQFNSYPHTFGQGTKLEIK
notes: Purified from a hybridoma of a KM Mouse; Human IgG (captured and detected with anti-human IgG) with a kappa light chain (VK L18); also called anti-IRTA-2 HuMAb 8A1

binding result [2]: no binding (tested: 10 µg/ml)
Kd [1]: 0.0021 µM
koff [1]: 6.9e-05 s⁻¹
kon [1]: 34000 M⁻¹ s⁻¹
binding result [3]: no binding (tested: 10 µg/ml)
binding result [4]: binds
B2: 9D12 human monoclonal antibody (antibody, V domains shown)
VH: EVQLLESGGGLVQPGGSLRLSCAASGFTFSSSAMSWVRQAPGKGLEWVSSISGSGDTTYYADSVKGRFTISRDNSKNTLYLQMNSLRVEDAALYYCAANWGAAFDIWGQGTMVTVSS
VL: EIVLTQSPATLSLSPGERATLSCRASQSVSSYLAWYQQKPGQAPRLLIYDASNRATGIPARFSGSGSGTDFTLTISSLEPEDFAVYYCQQRSNWPRWTFGQGTKVEIK
notes: Purified from a hybridoma of a HuMAb Mouse; Human IgG (captured and detected with anti-human IgG) with a kappa light chain (VK L6); also called anti-IRTA-2 HuMAb 9D12
